# From patent publication US20140213531A1 (POLYPHOR, published 2014)
# Bridges are numbered along the chain shown (N, C = ends). [ ]: non-standard residue; d: D form. Pro(4NHCOPhe) = not defined here; Nle = CCCC[C@H](N)C(=O)O
# B1: Example 90 (peptide)
# peptide: XCTASIPPQCF
# HELM: PEPTIDE1{[Nle].C.T.A.S.I.P.P.Q.C.F.[dP].P}$PEPTIDE1,PEPTIDE1,2:R3-10:R3|PEPTIDE1,PEPTIDE1,1:R1-13:R2$$$V2.0
# SMILES: CCCC[C@@H]1NC(=O)[C@@H]2CCCN2C(=O)[C@H]2CCCN2C(=O)[C@H](Cc2ccccc2)NC(=O)[C@@H]2CSSC[C@H](NC1=O)C(=O)N[C@@H]([C@@H](C)O)C(=O)N[C@@H](C)C(=O)N[C@@H](CO)C(=O)N[C@@H]([C@@H](C)CC)C(=O)N1CCC[C@H]1C(=O)N1CCC[C@H]1C(=O)N[C@@H](CCC(N)=O)C(=O)N2
# notes: also called Ex. 90
# B2: Example 131 (peptide)
# peptide: XCTASIPPQCQ
# HELM: PEPTIDE1{[Nle].C.T.A.S.I.P.P.Q.C.Q.[dP].P}$PEPTIDE1,PEPTIDE1,2:R3-10:R3|PEPTIDE1,PEPTIDE1,1:R1-13:R2$$$V2.0
# SMILES: CCCC[C@@H]1NC(=O)[C@@H]2CCCN2C(=O)[C@H]2CCCN2C(=O)[C@H](CCC(N)=O)NC(=O)[C@@H]2CSSC[C@H](NC1=O)C(=O)N[C@@H]([C@@H](C)O)C(=O)N[C@@H](C)C(=O)N[C@@H](CO)C(=O)N[C@@H]([C@@H](C)CC)C(=O)N1CCC[C@H]1C(=O)N1CCC[C@H]1C(=O)N[C@@H](CCC(N)=O)C(=O)N2
# B3: Example 88 (peptide)
# peptide: cyclo([Nle]CTASIP[Pro(4NHCOPhe)]QCY[dP]P)
# modifications: disulfide 2-10; reading uncertain
# notes: also called Ex. 88
# B4: Example 123 (peptide)
# peptide: XCTASIPPQCY
# HELM: PEPTIDE1{[Nle].C.T.A.S.I.P.P.Q.C.Y.[dP].Q}$PEPTIDE1,PEPTIDE1,2:R3-10:R3|PEPTIDE1,PEPTIDE1,1:R1-13:R2$$$V2.0
# SMILES: CCCC[C@@H]1NC(=O)[C@H](CCC(N)=O)NC(=O)[C@H]2CCCN2C(=O)[C@H](Cc2ccc(O)cc2)NC(=O)[C@@H]2CSSC[C@H](NC1=O)C(=O)N[C@@H]([C@@H](C)O)C(=O)N[C@@H](C)C(=O)N[C@@H](CO)C(=O)N[C@@H]([C@@H](C)CC)C(=O)N1CCC[C@H]1C(=O)N1CCC[C@H]1C(=O)N[C@@H](CCC(N)=O)C(=O)N2
# notes: also called Ex. 123
# B5: Example 121 (peptide)
# peptide: XCTASIPPQCY
# HELM: PEPTIDE1{[Nle].C.T.A.S.I.P.P.Q.C.Y.[dP].D}$PEPTIDE1,PEPTIDE1,2:R3-10:R3|PEPTIDE1,PEPTIDE1,1:R1-13:R2$$$V2.0
# SMILES: CCCC[C@@H]1NC(=O)[C@H](CC(=O)O)NC(=O)[C@H]2CCCN2C(=O)[C@H](Cc2ccc(O)cc2)NC(=O)[C@@H]2CSSC[C@H](NC1=O)C(=O)N[C@@H]([C@@H](C)O)C(=O)N[C@@H](C)C(=O)N[C@@H](CO)C(=O)N[C@@H]([C@@H](C)CC)C(=O)N1CCC[C@H]1C(=O)N1CCC[C@H]1C(=O)N[C@@H](CCC(N)=O)C(=O)N2
# B6: Example 12 (peptide)
# peptide: XCTKSDPPICR
# HELM: PEPTIDE1{[O=C([C@@H](N[*:1])C1CCCCC1)[*:2]].C.T.K.S.D.P.P.I.C.R.[dP].P}$PEPTIDE1,PEPTIDE1,2:R3-10:R3|PEPTIDE1,PEPTIDE1,1:R1-13:R2$$$V2.0
# SMILES: CC[C@H](C)[C@@H]1NC(=O)[C@@H]2CCCN2C(=O)[C@@H]2CCCN2C(=O)[C@H](CC(=O)O)NC(=O)[C@H](CO)NC(=O)[C@H](CCCCN)NC(=O)[C@H]([C@@H](C)O)NC(=O)[C@@H]2CSSC[C@H](NC1=O)C(=O)N[C@@H](CCCNC(=N)N)C(=O)N1CCC[C@@H]1C(=O)N1CCC[C@H]1C(=O)N[C@@H](C1CCCCC1)C(=O)N2
# B7: Example 96 (peptide)
# peptide: XCTASIPPQCX
# HELM: PEPTIDE1{[Nle].C.T.A.S.I.P.P.Q.C.[O=C([C@H](Cc1ccccc1Cl)N[*:1])[*:2]].[dP].P}$PEPTIDE1,PEPTIDE1,2:R3-10:R3|PEPTIDE1,PEPTIDE1,1:R1-13:R2$$$V2.0
# SMILES: CCCC[C@@H]1NC(=O)[C@@H]2CCCN2C(=O)[C@H]2CCCN2C(=O)[C@H](Cc2ccccc2Cl)NC(=O)[C@@H]2CSSC[C@H](NC1=O)C(=O)N[C@@H]([C@@H](C)O)C(=O)N[C@@H](C)C(=O)N[C@@H](CO)C(=O)N[C@@H]([C@@H](C)CC)C(=O)N1CCC[C@H]1C(=O)N1CCC[C@H]1C(=O)N[C@@H](CCC(N)=O)C(=O)N2
# notes: also called Ex. 96
# B8: Example 125 (peptide)
# peptide: XCTASIPPQCY
# HELM: PEPTIDE1{[Nle].C.T.A.S.I.P.P.Q.C.Y.[dP].V}$PEPTIDE1,PEPTIDE1,2:R3-10:R3|PEPTIDE1,PEPTIDE1,1:R1-13:R2$$$V2.0
# SMILES: CCCC[C@@H]1NC(=O)[C@H](C(C)C)NC(=O)[C@H]2CCCN2C(=O)[C@H](Cc2ccc(O)cc2)NC(=O)[C@@H]2CSSC[C@H](NC1=O)C(=O)N[C@@H]([C@@H](C)O)C(=O)N[C@@H](C)C(=O)N[C@@H](CO)C(=O)N[C@@H]([C@@H](C)CC)C(=O)N1CCC[C@H]1C(=O)N1CCC[C@H]1C(=O)N[C@@H](CCC(N)=O)C(=O)N2
# B9: Example 116 (peptide)
# peptide: cyclo([Nle]CTASIPPQCY[dF]P)
# modifications: disulfide 2-10
# B10: Example 7 (peptide)
# peptide: RETKSDPPIRF
# HELM: PEPTIDE1{R.E.T.K.S.D.P.P.I.R.F.[dP].P}$PEPTIDE1,PEPTIDE1,1:R1-13:R2$$$V2.0
# SMILES: CC[C@H](C)[C@@H]1NC(=O)[C@@H]2CCCN2C(=O)[C@@H]2CCCN2C(=O)[C@H](CC(=O)O)NC(=O)[C@H](CO)NC(=O)[C@H](CCCCN)NC(=O)[C@H]([C@@H](C)O)NC(=O)[C@H](CCC(=O)O)NC(=O)[C@H](CCCNC(=N)N)NC(=O)[C@@H]2CCCN2C(=O)[C@H]2CCCN2C(=O)[C@H](Cc2ccccc2)NC(=O)[C@H](CCCNC(=N)N)NC1=O
# B11: Example 103 (peptide)
# peptide: XCTASIPPQCY
# HELM: PEPTIDE1{[O=C([C@H](CCc1ccccc1)N[*:1])[*:2]].C.T.A.S.I.P.P.Q.C.Y.[dP].P}$PEPTIDE1,PEPTIDE1,2:R3-10:R3|PEPTIDE1,PEPTIDE1,1:R1-13:R2$$$V2.0
# SMILES: CC[C@H](C)[C@@H]1NC(=O)[C@H](CO)NC(=O)[C@H](C)NC(=O)[C@H]([C@@H](C)O)NC(=O)[C@@H]2CSSC[C@H](NC(=O)[C@H](CCC(N)=O)NC(=O)[C@@H]3CCCN3C(=O)[C@@H]3CCCN3C1=O)C(=O)N[C@@H](Cc1ccc(O)cc1)C(=O)N1CCC[C@@H]1C(=O)N1CCC[C@H]1C(=O)N[C@@H](CCc1ccccc1)C(=O)N2
# Tests used:
# [1] = molecular target: T1, Chymase, from human skin (human, UniProt P23946 22-247); test: enzyme inhibition, pNA substrate
# T1 construct: purified natural enzyme, bought
# T1 sequence (looked up): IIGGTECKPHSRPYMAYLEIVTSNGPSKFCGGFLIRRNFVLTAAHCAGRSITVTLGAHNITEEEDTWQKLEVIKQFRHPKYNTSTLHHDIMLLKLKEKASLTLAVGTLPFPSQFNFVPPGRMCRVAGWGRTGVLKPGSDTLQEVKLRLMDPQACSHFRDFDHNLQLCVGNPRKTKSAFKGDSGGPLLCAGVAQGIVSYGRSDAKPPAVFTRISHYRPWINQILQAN
# [2] = molecular target: Thrombin, from Human Plasma, high activity (human, UniProt P00734 328-622); test: enzyme inhibition, pNA substrate
# [3] = molecular target: T2, Trypsin, Iodination grade, from human pancreas (human, UniProt P07477 24-247); test: enzyme inhibition, pNA substrate
# T2 construct: purified natural enzyme, bought
# [4] = molecular target: T3, Coagulation Factor Xa, from uman plasma (human, UniProt P00742 41-179; P00742 235-488, limits assumed); test: enzyme inhibition, pNA substrate
# T3 construct: purified natural enzyme, bought; also called FXa
# T3 sequence (P00742 41-179 limits assumed, chain 1 of 2): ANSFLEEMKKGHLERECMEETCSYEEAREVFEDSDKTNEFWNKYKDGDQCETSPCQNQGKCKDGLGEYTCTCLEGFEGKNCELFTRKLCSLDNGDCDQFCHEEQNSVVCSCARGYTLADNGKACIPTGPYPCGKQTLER
# T3 sequence (P00742 235-488 limits assumed, chain 2 of 2): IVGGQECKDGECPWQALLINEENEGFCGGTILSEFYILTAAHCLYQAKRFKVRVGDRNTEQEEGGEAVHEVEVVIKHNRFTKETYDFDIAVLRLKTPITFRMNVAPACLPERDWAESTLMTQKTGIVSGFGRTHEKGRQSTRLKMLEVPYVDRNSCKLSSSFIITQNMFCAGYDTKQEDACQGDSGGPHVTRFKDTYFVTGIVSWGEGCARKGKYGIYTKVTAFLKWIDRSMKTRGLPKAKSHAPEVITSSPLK
# [5] = molecular target: T4, CathepsinG, from human neutrophils (human, UniProt P08311 21-244); test: cell-based or functional assay
# T4 sequence (looked up): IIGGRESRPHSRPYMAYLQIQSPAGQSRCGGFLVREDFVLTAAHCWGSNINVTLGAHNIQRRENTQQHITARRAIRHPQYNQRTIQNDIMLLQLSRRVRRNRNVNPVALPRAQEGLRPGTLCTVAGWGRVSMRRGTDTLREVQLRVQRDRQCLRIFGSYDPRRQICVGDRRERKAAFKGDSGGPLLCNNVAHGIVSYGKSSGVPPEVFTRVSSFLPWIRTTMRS
# [6] = molecular target: T5, Chymase, from human skin (human, UniProt P23946 22-247); test: cell-based or functional assay
# T5 sequence (looked up): T1 sequence (looked up)
# [7] = molecular target: Thrombin, from Human Plasma, high activity (human, UniProt P00734 328-622); test: cell-based or functional assay
# [8] = molecular target: Tryptase, from human lung (human, UniProt Q15661 31-275, limits assumed); test: cell-based or functional assay
# Target sequence in this assay (Q15661 31-275 limits assumed): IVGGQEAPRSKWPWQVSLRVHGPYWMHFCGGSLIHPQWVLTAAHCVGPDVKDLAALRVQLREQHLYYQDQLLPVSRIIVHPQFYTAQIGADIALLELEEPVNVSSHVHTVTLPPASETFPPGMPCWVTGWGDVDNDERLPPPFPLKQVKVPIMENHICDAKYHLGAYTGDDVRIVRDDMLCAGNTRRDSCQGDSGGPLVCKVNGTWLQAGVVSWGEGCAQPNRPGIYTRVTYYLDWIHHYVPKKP
# [9] = molecular target: Urokinase from human urine (human, UniProt P00749 21-431, limits assumed); test: cell-based or functional assay
# [10] = molecular target: Coagulation Factor Xa, from human plasma (human, UniProt P00742 41-488, limits assumed); test: cell-based or functional assay
# Sequence of Coagulation Factor Xa, from human plasma (P00742 41-488 limits assumed): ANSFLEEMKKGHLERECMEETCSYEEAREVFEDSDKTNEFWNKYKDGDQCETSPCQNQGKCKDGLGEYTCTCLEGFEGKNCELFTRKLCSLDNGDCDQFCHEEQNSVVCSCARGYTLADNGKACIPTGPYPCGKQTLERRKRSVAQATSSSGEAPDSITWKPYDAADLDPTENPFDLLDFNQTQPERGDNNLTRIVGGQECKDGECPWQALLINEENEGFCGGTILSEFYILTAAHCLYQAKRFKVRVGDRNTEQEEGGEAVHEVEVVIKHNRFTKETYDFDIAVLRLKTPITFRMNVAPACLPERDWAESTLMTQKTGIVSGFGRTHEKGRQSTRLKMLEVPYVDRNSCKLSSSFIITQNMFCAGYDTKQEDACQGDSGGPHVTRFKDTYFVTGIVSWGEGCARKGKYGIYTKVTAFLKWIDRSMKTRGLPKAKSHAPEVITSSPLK
# [11] = molecular target: Chymotrypsin, from human pancreas (human, UniProt P17538 19-263); test: cell-based or functional assay
# Sequence of Chymotrypsin, from human pancreas (P17538 19-263): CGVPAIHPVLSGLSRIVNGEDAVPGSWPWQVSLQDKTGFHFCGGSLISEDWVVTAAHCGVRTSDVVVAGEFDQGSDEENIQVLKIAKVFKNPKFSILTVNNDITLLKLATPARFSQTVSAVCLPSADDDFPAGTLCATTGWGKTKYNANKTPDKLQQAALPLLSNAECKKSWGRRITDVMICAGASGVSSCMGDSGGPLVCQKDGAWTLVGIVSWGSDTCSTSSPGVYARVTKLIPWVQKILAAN
# [12] = molecular target: T6, Elastase from human neutrophils (human, UniProt P08246 30-247, limits assumed); test: cell-based or functional assay
# T6 sequence (looked up): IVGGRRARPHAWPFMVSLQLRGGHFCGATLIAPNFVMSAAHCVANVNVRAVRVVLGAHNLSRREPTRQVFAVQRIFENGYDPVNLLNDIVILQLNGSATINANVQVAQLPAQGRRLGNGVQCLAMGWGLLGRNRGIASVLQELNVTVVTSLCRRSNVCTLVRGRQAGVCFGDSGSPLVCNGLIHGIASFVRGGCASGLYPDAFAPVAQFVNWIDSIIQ
# [13] = molecular target: Trypsin, Iodination grade, from human pancreas (human, UniProt P07477 24-247); test: cell-based or functional assay
# [14] = molecular target: T7, Tryptase, from human lung (human, UniProt Q15661 31-275, limits assumed); test: enzyme inhibition, pNA substrate
# T7 construct: purified natural enzyme, bought
# T7 sequence (Q15661 31-275 limits assumed): as the sequence (Q15661 31-275 limits assumed) above
binder,measurement,setting,value
B1,% inhibition at 100 µM,[1],0%
same,% inhibition at 100 µM,[2],0%
B2,% inhibition at 100 µM,[3],0%
B3,% inhibition at 100 µM,[1],0%
B4,% inhibition at 100 µM,[1],0%
same,% inhibition at 100 µM,[4],0%
B5,% inhibition at 100 µM,[2],0%
same,% inhibition at 100 µM,[3],12.8%
B6,IC50,[5],90 nmol
same,% inhibition at 100 µM,[6],12%
same,% inhibition at 100 µM,[7],11%
same,% inhibition at 100 µM,[8],59.3%
same,% inhibition at 100 µM,[9],12%
same,% inhibition at 100 µM,[10],5%
same,% inhibition at 100 µM,[11],28%
same,IC50,[12],37000 nmol
same,% inhibition at 100 µM,[13],97%
B7,% inhibition at 100 µM,[14],0%
same,% inhibition at 100 µM,[1],0%
same,% inhibition at 100 µM,[4],0%
B8,% inhibition at 100 µM,[2],0%
same,% inhibition at 100 µM,[3],28.3%
same,% inhibition at 100 µM,[4],0%
B9,% inhibition at 100 µM,[3],0%
B10,IC50,[5],91 nmol
same,% inhibition at 100 µM,[6],13.4%
same,% inhibition at 100 µM,[7],0%
same,% inhibition at 100 µM,[8],1.5%
same,% inhibition at 100 µM,[9],1.1%
same,% inhibition at 100 µM,[10],11.7%
same,% inhibition at 100 µM,[11],12%
same,% inhibition at 100 µM,[12],1.5%
same,% inhibition at 100 µM,[13],41%
B11,% inhibition at 100 µM,[1],0%
same,% inhibition at 100 µM,[2],10.2%
